System: DDR receptors
Assay: Effect of other agents on DDR activity / collagen-induced DDR tyrosine phosphorylation
Format: cell-based
Conditions: collagen-associated molecules

effect on DDR activity: no effect
B1: decorin: collagen-associated molecule (protein, UniProt P07585 31-359, looked up)
Decorin: DEASGIGPEVPDDRDFEPSLGPVCPFRCQCHLRVVQCSDLGLDKVPKDLPPDTTLLDLQNNKITEIKDGDFKNLKNLHALILVNNKISKVSPGAFTPLVKLERLYLSKNQLKELPEKMPKTLQELRAHENEITKVRKVTFNGLNQMIVIELGTNPLKSSGIENGAFQGMKKLSYIRIADTNITSIPQGLPPSLTELHLDGNKISRVDAASLKGLNNLAKLGLSFNSISAVDNGSLANTPHLRELHLDNNKLTRVPGGLAEHKYIQVVYLHNNNISVVGSSDFCPPGHNTKKASYSGVSLFSNPVQYWEIQPSTFRCVYVRSAIQLGNYK
